The test deals with T1, 重组人CD47带his标签的蛋白 (human, UniProt Q08722 19-139, limits assumed).
T1 construct: Immunogen and ELISA coating antigen; also called 重组人CD47 his标签蛋白; 检测抗原; not shown: his tag
Briefly: indirect ELISA; CD47-his coated at 3, 1.5, 0.75 and 0.375 mg/L; K=(N-1)/(N*AB'-AB), mean of 6 K values. In general terms: ELISA stands for enzyme-linked immunosorbent assay.

T1 sequence (Q08722 19-139 limits assumed): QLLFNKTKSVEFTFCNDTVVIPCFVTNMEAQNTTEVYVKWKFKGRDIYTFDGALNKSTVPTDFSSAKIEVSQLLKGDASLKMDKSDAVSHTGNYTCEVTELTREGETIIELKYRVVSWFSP

B1: 单克隆细胞株7G7分泌的鼠抗人CD47单克隆抗体 (antibody, V domains shown)
VH: VKLQQSGAELARPGASVKLSCTASGYTFTDYYINWVRQRTGQGLEWIGDINPGRGKTYYIEKFKGKATLTADKSSSTAYMQLSSLTSEDSAVYFCARGGLRRFDYWGQGTTVTVSS
VL: DIELTQSPAIMSVSPGEKVTMTCRASSSVSSSYLHWYQQKSGVSPKLWIYSTSTLASGVPARFSGSGSGTSYSLTISSVEAADAATYYCQQYSGYPYTFGGGTKVEIKR
B1 gave a Ka of 1.39e+08 M⁻¹.

These data come from patent CN113501874A (SANGON BIOTECH SHANGHAI CO LTD, dated 2021).
